Assay [1] deals with T1, pTag_(18aa) (original 18 amino acid peptide tag) (Clostridium tetani, tetanus …).
In assay [2] the target is T2, pTag9aa (free, without cargo) (Clostridium tetani, tetanus …).
Assay [3] deals with T1, pTag_(18aa) (original 18 amino acid …). As to the kind of experiment: SPR; […]; 25 °C, HBS with 0.05% Tween20, pH 7.5; Biacore T200, 1:1 Langmuir model. The following applies: both partners purified. For orientation: In SPR one partner is held on a chip, and binding of the other changes the refractive index at the surface.
The next assay deals with pTag_(12aa) (Clostridium tetani, tetanus …). The assay is described as above. The note with it: both partners purified.
For assay [4], the target named is T2, pTag9aa (free, without cargo). Described as above. The following applies: both partners purified.
For another assay, the target named is T3, human CD40-Fc (human, UniProt P25942).
T3 construct: also called hCD40-Fc
T3 sequence (P25942 21-193): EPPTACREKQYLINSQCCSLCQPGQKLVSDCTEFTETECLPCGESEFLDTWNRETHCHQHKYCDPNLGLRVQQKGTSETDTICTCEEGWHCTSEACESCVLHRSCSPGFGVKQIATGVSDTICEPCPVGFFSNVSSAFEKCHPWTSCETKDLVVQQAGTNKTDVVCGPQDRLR
In words: SPR; wildtype against deimmunized variant on the CD40 protein (Supplementary Fig. 3B); format of this experiment not told in what was shown. The following applies: both partners purified.

Like-named read-outs stand apart in the source and are kept apart here.

B1: BiA9*2_HF (antibody, V domains shown)
VH: QVQLVQSGAEVKKPGASVKVSCKASGFNIKDFNIHWVRQAPGQGLEWIGRIDPENGDAEYVPKFQGRVTMTRDTSTSTVYMELSSLRSEDTAVYYCTTGSYDLDVEYWGQGTLVTVSS
VL: DIQMTQSPSSLSASVGDRVTITCHASQNINVWLSWYQQKPGKAPKLLIYKASTLHTGVPSRFSGSGSGTDFTLTISSLQPEDFATYYCQQGQSYPLTFGQGTKLEIK
With B1, the binding result in assay [1] and in assay [2] was “binds” each time.

B2:  (scFv, V domains shown)
VH: QVQLVQSGAEVKKPGASVKVSCKASGFNIKDFNIHWVRQAPGQGLEWIGRIDPESGDAEYVPKFQGRVTMTRDTSTSTVYMELSSLRSEDTAVYYCTTGSYDLDVEYWGQGTLVTVSS
VL: DIQMTQSPSSLSASVGDRVTITCHASQNINVWLSWYQQKPGKAPKLLIYKASTLHTGVPSRFSGSGSGTDFTLTISSLQPEDFATYYCQQGQSYPLTFGQGTKLEIK
notes: also called humanized scFv; humanized single chain clone SG; source: E. coli, purified (Ni-NTA)
Take B2: the binding result (in assay [3]; with pTag_(12aa); in assay [4]) was “binds” throughout.

B3: murine anti-pTag scFv (scFv, V domains shown)
VH: EVRLLQSGAALVRPGASVKLSCTASGFNIKDFNIHWVKQRPEQGLEWIGRIDPENGDAEYVPKFQVRATMTTDTSSNTVYLHLSSLTSGDTAVYYCTTGSYDLDVEYWGQGTTLTVSS
VL: ELQMTQSPSSLSASLGDTVTITCHASQNINVWLSWYQQRPGNIPKLLIYKASTLHTGVPSRFRGSGSGTGFTLTISSLQPEDIATYYCQQGQSYPLTFGAGTKLELK
notes: also called murine scFv; mscFv
A word on the Kd: it is the concentration at which binding is half-saturated. A low value points to higher affinity. With B3, the dissociation constant Kd in assay [3] was 4 nM. Further, the binding result in the assay with pTag_(12aa) is given as “binds”.

B4: A9 anti-CD40 antibody, wildtype variant (before deimmunization) (antibody, V domains shown)
VH: EVQLLESGGGLVQPGGSLRLSCAASGFTFSSYAMSWVRQAPGKGLEWVSGISGYSGSTYYADSVKGRFTISRDNSKNTLYLQMNSLRAEDTAVYYCARYYSYYGYYYFDYWGQGTLVTVSS
VL: DIQMTQSPSSLSASVGDRVTITCRASQSISSYLNWYQQKPGKAPKLLIYAASSLQSGVPSRFSGSGSGTDFTLTISSLQPEDFATYYCQQGYPYPFTFGQGTKLEIK
notes: also called WT; original variant
Molecule B4 came in with a Kd with human CD40-Fc of 3.4 nM.

The values above are taken from publication PMC11538452 (Nature Communications, 2024).
